Assays:
CHO-A2 mCB2 [1] = biological target: T1, CHO-A2 mCB2 (Mus musculus, UniProt P47936); assay: Immunoprecipitation from whole cell lysates; format: binding; set-up: key: “−” no signal; “+”-“+++++” signal intensity; “+”-“+++++” signal intensity; “+”-“+++++” signal intensity; “+”-“+++++” signal intensity; “+”-“+++++” signal intensity; conditions: CHO-A2 mCB2 lysate
T1 construct: expressed in transfected cells
Protocol: (§1) The positive clones (Table 1) were further characterized by immunofluorescence (IF; Table 2), Western Blot (Table 3, 1) and Immune precipitation (Table 4, 2) on full length hCB2, hCB1, mCB2 stable-transfected CHO-cell lines in addition to the 2 pANITA constructs.
For immunoprecipitation (IP), whole cell lysates were incubated with the respective antibodies. IP was performed according to established protocols and subsequent western blot as described herein above.

pANITA3.1 mCB2 (JB176) = biological target: T2, pANITA3.1 mCB2 (JB176) (Mus musculus, UniProt P47936); assay: Immunofluorescence on methanol-fixed transfected cells; format: binding; set-up: key: “−” no fluorescence detected; “+”-“++++” intensity of fluorescent signal; “+”-“++++” intensity of fluorescent signal; “+”-“++++” intensity of fluorescent signal; “+”-“++++” intensity of fluorescent signal; conditions: pANITA3.1 mCB2 (JB176) cells
T2 construct: expressed in transfected cells; host or cells: HEK293
T2 sequence (P47936 with tags, fused parts or gaps): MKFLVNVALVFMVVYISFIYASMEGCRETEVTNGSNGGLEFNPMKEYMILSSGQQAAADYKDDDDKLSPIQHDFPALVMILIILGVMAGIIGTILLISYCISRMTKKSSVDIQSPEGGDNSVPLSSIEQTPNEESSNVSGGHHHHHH
Protocol: as §1
(§2) For IF analysis, methanol-fixed cells were incubated for 20 min in a humid chamber at 37° C. with the respective hCB2 and mCB2 clones. After rinsing twice and washing for 15 min in PBS, 125 μg/ml FITC-conjugated […] anti-mouse IgG antibodies (RAM/IgG (H+L)/FITC, Nordic
(§3) Immunological Laboratories) diluted in PBS was added and incubated for 20 min in a humid chamber at 37° C. Cells were rinsed twice and washed for 15 min in PBS, mounted with mounting solution (50% PBS 50% glycerol) and covered with a coverslip. Staining was assessed by fluorescence microscopy on a Leica CTR500 fluorescence microscope and a Leica DFC300 FX digital camera.

pANITA3.1 hCB2 (JB175) = biological target: T3, pANITA3.1 hCB2 (JB175) (Homo sapiens, UniProt P34972); assay: as above; format: binding; set-up: key: “−” no fluorescence detected; “+”-“++++” intensity of fluorescent signal; “+”-“++++” intensity of fluorescent signal; “+”-“++++” intensity of fluorescent signal; “+”-“++++” intensity of fluorescent signal; conditions: pANITA3.1 hCB2 (JB175) cells
T3 construct: expressed in transfected cells; host or cells: HEK293
T3 sequence (P34972 with tags, fused parts or gaps): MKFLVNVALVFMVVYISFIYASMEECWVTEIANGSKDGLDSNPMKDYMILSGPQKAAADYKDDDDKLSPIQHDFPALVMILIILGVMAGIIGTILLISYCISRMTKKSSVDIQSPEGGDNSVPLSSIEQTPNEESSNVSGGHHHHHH
Protocol: as §1, §2, §3

[2] = Storage stability of antibody working dilution; format: physicochemical; conditions: working dilution (5 μg/sample), on ice
Protocol: FIG. 12: Single dose in vivo study monitoring the pharmacodynomic effect of RG7774 on CB2 expression on B-cells in Cynomolgus upon oral dosing. Three healthy cynomolgus monkeys were dosed with 100 mg/kg of the CB2 agonist RG7774. The blood draw at different time points was followed by the incubation with the anti-human CB2 antibody 1/622. The expression of CB2 on the surface of B-cells was analyzed using a lineage marker mix specific for B-cells and T-cells. The B/T-cell CB2 MFI ratio was calculated and normalized to baseline. 0 μM served as 100% baseline receptor expression. […] Due to a storage effect of the antibody working dilution (5 μg/sample) of the anti-human CB2 Ab 1/622 the 4 and 7 hours' time point have been excluded. The working dilution of this antibody is only stable for 2 hours on ice.

CHO-A2 mCB2 [3] = biological target: T1, CHO-A2 mCB2; assay: Immunofluorescence on methanol-fixed transfected cells; format: binding; set-up: key to immunofluorescence signal intensity: “−” no fluorescence detected; “+”-“++++” intensity of fluorescent signal; “+”-“++++” intensity of fluorescent signal; “+”-“++++” intensity of fluorescent signal; “+”-“++++” intensity of fluorescent signal
Protocol: as §1, §2, §3

CHODukx CRE hCB2 Cl.90 = biological target: T4, CHODukx CRE hCB2 Cl.90 (Homo sapiens, UniProt P34972); assay: as above; format: binding; set-up: key to immunofluorescence signal intensity: “−” no fluorescence detected; “+”-“++++” intensity of fluorescent signal; “+”-“++++” intensity of fluorescent signal; “+”-“++++” intensity of fluorescent signal; “+”-“++++” intensity of fluorescent signal
T4 construct: expressed in transfected cells
T4 sequence (P34972 whole entry): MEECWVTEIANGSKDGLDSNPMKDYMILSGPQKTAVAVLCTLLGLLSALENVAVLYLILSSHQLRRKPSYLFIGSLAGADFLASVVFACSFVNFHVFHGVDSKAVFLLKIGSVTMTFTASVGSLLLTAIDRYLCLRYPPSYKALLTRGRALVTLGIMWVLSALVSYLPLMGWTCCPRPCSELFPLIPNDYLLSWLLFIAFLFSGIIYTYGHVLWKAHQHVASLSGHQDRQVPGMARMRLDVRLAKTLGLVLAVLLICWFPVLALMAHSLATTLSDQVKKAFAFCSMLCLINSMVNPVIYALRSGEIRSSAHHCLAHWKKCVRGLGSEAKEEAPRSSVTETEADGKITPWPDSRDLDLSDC
Protocol: as §1, §2, §3

CHODukx CRE hCB1 Cl.20 [4] = biological target: T5, CHODukx CRE hCB1 Cl.20 (Homo sapiens, UniProt P21554); assay: as above; format: binding; set-up: key to immunofluorescence signal intensity: “−” no fluorescence detected; “+”-“++++” intensity of fluorescent signal; “+”-“++++” intensity of fluorescent signal; “+”-“++++” intensity of fluorescent signal; “+”-“++++” intensity of fluorescent signal
T5 construct: expressed in transfected cells
T5 sequence (P21554 whole entry): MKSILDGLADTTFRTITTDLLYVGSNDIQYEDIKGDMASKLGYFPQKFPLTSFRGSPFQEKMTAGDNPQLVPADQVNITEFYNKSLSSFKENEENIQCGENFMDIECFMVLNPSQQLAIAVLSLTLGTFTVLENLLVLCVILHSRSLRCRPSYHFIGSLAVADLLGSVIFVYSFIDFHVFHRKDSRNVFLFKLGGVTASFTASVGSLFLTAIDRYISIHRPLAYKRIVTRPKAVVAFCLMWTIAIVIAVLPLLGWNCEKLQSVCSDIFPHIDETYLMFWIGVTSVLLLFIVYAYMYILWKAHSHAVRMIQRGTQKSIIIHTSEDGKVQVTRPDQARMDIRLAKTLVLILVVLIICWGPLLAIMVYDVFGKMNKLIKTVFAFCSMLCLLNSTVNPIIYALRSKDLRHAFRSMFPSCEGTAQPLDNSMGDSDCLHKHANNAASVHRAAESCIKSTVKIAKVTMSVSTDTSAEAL
Protocol: as §1, §2, §3

CHODukx CRE hCB1 Cl.20 [5] = biological target: T5, CHODukx CRE hCB1 Cl.20; assay: Western blot of cell lysates; format: binding; set-up: key to Western Blot signal intensity: “−” no signal; “+”-“+++++” signal intensity; “+”-“+++++” signal intensity; “+”-“+++++” signal intensity; “+”-“+++++” signal intensity; “+”-“+++++” signal intensity
Protocol: as §1
For Western blot analysis, cells were collected using enzyme free dissociation buffer (Cell dissociation buffer enzyme-free Hanks'-based, Gibco), and washed two times with PBS. To prepare cell lysate, 10^6 cells were lysed with 0.1 ml of lysis buffer (1% NP40, 10% glycerol, 2 mM EDTA, 137 mM NaCl, 20 mM TrisHCl, pH8, Protease Inhibitors) for 10 min on ice. The lysate was cleared by centrifugation at 20′000 g for 5 min. For SDS-PAGE cell lysate was resolved on precast 4-12% gradient gels (NuPAGE® Novex 4-12% Bis-Tris Gel, Invitrogen) with MES running buffer according to the manufacturer's directions. The separation of proteins was visualized by Colloidal Blue staining. The proteins were electrophoretically transferred to nitrocellulose membrane using a dry-blotting system (iBlot, Invitrogen). After blocking the membrane for 16 h in blocking buffer (5% Milk in PBS) at 4° C., specific proteins were detected with appropriate dilutions of mAbs in blocking buffer for 1 h at approximately 20° C. […]

T1 sequence (P47936 whole entry): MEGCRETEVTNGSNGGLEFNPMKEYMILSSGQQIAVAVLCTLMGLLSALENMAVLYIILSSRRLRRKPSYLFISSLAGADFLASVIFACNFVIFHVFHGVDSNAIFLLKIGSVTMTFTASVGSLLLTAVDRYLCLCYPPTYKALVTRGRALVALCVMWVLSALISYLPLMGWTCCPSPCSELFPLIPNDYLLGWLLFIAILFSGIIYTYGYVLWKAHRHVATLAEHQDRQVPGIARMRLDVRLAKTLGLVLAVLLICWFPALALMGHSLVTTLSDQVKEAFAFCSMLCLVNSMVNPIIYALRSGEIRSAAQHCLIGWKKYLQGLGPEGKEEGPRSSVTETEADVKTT

B1: hCB2-1/622: murine IgG3 monoclonal anti-human CB2 antibody, VH SEQ ID NO: 1, VL SEQ ID NO: 2, HC SEQ ID NO: 3, LC SEQ ID NO: 4 (antibody)
heavy: EVQLQQSGPELVKPGASVKISCKTSGYTFTEYTMHWVRQSHGKSLEWIGGIDRYNGDTYYNQKFKDKATLTVDRSSSTAYMELRSLTSEDSAVYFCARNGAMDYWGQGISVTVSSATTTAPSVYPLVPGCSDTSGSSVTLGCLVKGYFPEPVTVKWNYGALSSGVRTVSSVLQSGFYSLSSLVTVPSSTWPSQTVICNVAHPASKTELIKRIEPRIPKPSTPPGSSCPPGNILGGPSVFIFPPKPKDALMISLTPKVTCVVVDVSEDDPDVHVSWFVDNKEVHTAWTQPREAQYNSTFRVVSALPIQHQDWMRGKEFKCKVNNKALPAPIERTISKPKGRAQTPQVYTIPPPREQMSKKKVSLTCLVTNFFSEAISVEWERNGELEQDYKNTPPILDSDGTYFLYSKLTVDTDSWLQGEIFTCSVVHEALHNHHTQKNLSRSPGK
light: DVVMTQTPLSLPVSLGDQASISCRSSQSLVHSNGNTYLHWFLQKPGQSPKLLIYKVSIRFSGVPDRFSGSGSGTDFTLKISRVEAEDLGVYFCSQSTHVPPLTFGAGTKLELKRADAAPTVSIFPPSSEQLTSGGASVVCFLNNFYPKDINVKWKIDGSERQNGVLNSWTDQDSKDSTYSMSSTLTLTKDEYERHNSYTCEATHKTSTSPIVKSFNRNEC
In the case of B1, the Immunoprecipitation signal intensity (CHO-A2 mCB2 [1]) is reported as “−”, the immunofluorescence signal intensity (pANITA3.1 mCB2 (JB176)) is reported as “−” and the immunofluorescence signal intensity (pANITA3.1 hCB2 (JB175)) is reported as “++++”. For the same molecule, the “stability of antibody working dilution” value [2] was 2 h, the immunofluorescence signal intensity (CHO-A2 mCB2 [3]; CHO-A2 mCB2 cells) was “−” and the “immunofluorescence staining” value (CHO-A2 mCB2 [3]; cells expressing mouse CB2) was “no staining”. The immunofluorescence signal intensity (CHODukx CRE hCB2 Cl.90; CHODukx CRE hCB2 Cl.90 cells) was “+++”, the “immunofluorescence staining” value (CHODukx CRE hCB2 Cl.90; the two cell lines expressing human CB2) was “high fluorescent signal intensities” and the immunofluorescence signal intensity (CHODukx CRE hCB1 Cl.20 [4]; CHODukx CRE hCB1 Cl.20 cells) was “−”. The “immunofluorescence staining” value (CHODukx CRE hCB1 Cl.20 [4]; cells expressing human CB1) was “no staining”, the “Western Blot signal intensity” value (CHODukx CRE hCB1 Cl.20 [5]; CHODukx CRE hCB1 Cl.20 lysate) was “−” and the “Western blot detection” value (CHODukx CRE hCB1 Cl.20 [5]; hCB1) was “no mCB2, hCB1 or rat GIPR was detected”.

From patent US20260029420A1, “ANTI-CB2 ANTIBODIES AND THEIR USE IN A FLOW CYTOMETRY ASSAY TO MEASURE CELL SURFACE CB2 EXPRESSION” (Hoffmann-La Roche Inc., priority 2022, published 2026)
